According to patent US20260167959A1, “APTAZYME-BASED REGULATABLE GENE EXPRESSION SYSTEMS” (REJUVENATE BIO INC, priority 2022, published 2026):

B1: RA434 (nucleic acid)
DNA: GCGCGTCCAGAATACCAGCATCGTCTTGATGCCCTTGGAAGTCTTGGATTCGCGGAAACGCGTACATCCAGCTGACGAGTCCCAAATAGGACGAAACGCGC
modifications: expressed or natural sequence
B2: RA444 (nucleic acid)
DNA: GCGCGTCCCGGAATACCAGCATCGTCTTGATGCCCTTGGAAGTCCGGCTGGATTCGCGGAAACGCGTACATCCAGCTGACGAGTCCCAAATAGGACGAAACGCGC
modifications: expressed or natural sequence
B3: RA441 (nucleic acid)
DNA: GCGCCCGGAATACCAGCATCGTCTTGATGCCCTTGGAAGTCCGGGTCCTGGATTCGCGGAAACGCGTACATCCAGCTGACGAGTCCCAAATAGGACGAAACGCGC
modifications: expressed or natural sequence
B4: RA456 (nucleic acid)
DNA: GCGCGTCCTGGATTCGCGGAAACGCGTACATCCAGCTGACGAGTCCCAAATACCGGAATACCAGCATCGTCTTGATGCCCTTGGAAGTCCGGGGACGAAACGCGC
modifications: expressed or natural sequence
B5: RA440 (nucleic acid)
DNA: GCGCGTCCTGGATTCGCGGAAACGCGTACATCCAGCTGACGAGTCCCAAATAGGACGAAACGCCGGAATACCAGCATCGTCTTGATGCCCTTGGAAGTCCGGC
modifications: expressed or natural sequence
B6: RA442 (nucleic acid)
DNA: GCGCGTCCTGGATTCGCGGAAACGCGTACATCCGGAATACCAGCATCGTCTTGATGCCCTTGGAAGTCCGCAGCTGACGAGTCCCAAATAGGACGAAACGCGC
modifications: expressed or natural sequence
B7: RA452 (nucleic acid)
DNA: GCGCGTCCTGGAGAATACCAGCATCGTCTTGATGCCCTTGGAAGTCTATTCGCGGAAACGCGTACATCCAGCTGACGAGTCCCAAATAGGACGAAACGCGC
modifications: expressed or natural sequence
B8: RA449 (nucleic acid)
DNA: GCGCGTCCTGGATTCGCGGAAACGCGTACATCCAGCTGACGAGTCCCAAATAGGACGAAACGCGAGTGATACCAGCATCGTCTTGATGCCCTTGGCAGCACTC
modifications: expressed or natural sequence
B9: RA448 (nucleic acid)
DNA: GCGCGCGGAATACCAGCATCGTCTTGATGCCCTTGGAAGTCCGTCCTGGATTCGCGGAAACGCGTACATCCAGCTGACGAGTCCCAAATAGGACGAAACGCGC
modifications: expressed or natural sequence
B10: RA433 (nucleic acid)
DNA: GCGCGTCCTGGATTCGCGGAAACGCGTACATCCAGCTGACGAGTCCCAAATAGGAAGTGATACCAGCATCGTCTTGATGCCCTTGGCAGCACTCGAAACGCGC
modifications: expressed or natural sequence
B11: RA443 (nucleic acid)
DNA: GCGCGTCCTGGATTCGCGGAAACGCGTACATCCAGCTGACGAGTCCCAAATAGGACGGAATACCAGCATCGTCTTGATGCCCTTGGAAGTCCGCGAAACGCGC
modifications: expressed or natural sequence
B12: RA430 (nucleic acid)
DNA: GCGCGTCCTGGATTCGCGGAAACGCGTACATCCAGCTGAGAGAATACCAGCATCGTCTTGATGCCCTTGGAAGTCTCCGAGTCCCAAATAGGACGAAACGCGC
modifications: expressed or natural sequence
B13: RA450 (nucleic acid)
DNA: GCGCGTCCTGGATTCGCGGAAACGCGTACATCCAGCTGACGAGTCCCAAATAGGACGAAACCCGGAATACCAGCATCGTCTTGATGCCCTTGGAAGTCCGGGCGC
modifications: expressed or natural sequence
B14: RA438 (nucleic acid)
DNA: GCGCGTCCTGGATTCGCGGAAACGCGTACATCCAGCTGACGAGTCCCAAATAGGACGCGGAATACCAGCATCGTCTTGATGCCCTTGGAAGTCCGAAACGCGC
modifications: expressed or natural sequence
B15: RA439 (nucleic acid)
DNA: GCGCGTGAGAATACCAGCATCGTCTTGATGCCCTTGGAAGTCTCCCTGGATTCGCGGAAACGCGTACATCCAGCTGACGAGTCCCAAATAGGACGAAACGCGC
modifications: expressed or natural sequence
B16: RA447 (nucleic acid)
DNA: GCGCGTCCTGGATTCGCGGAAACGCGTACATCCAGCTGACGAGTCCGGAATACCAGCATCGTCTTGATGCCCTTGGAAGTCCCAAATAGGACGAAACGCGC
modifications: expressed or natural sequence
B17: RA454 (nucleic acid)
DNA: GCGCGTCCTGGATTCGCGGAAACGCGTACATCCAGCTGACGAGTCCAGAATACCAGCATCGTCTTGATGCCCTTGGAAGTCTCAAATAGGACGAAACGCGC
modifications: expressed or natural sequence
B18: RA431 (nucleic acid)
DNA: GCGCGTCCTGGATTCGCGGAAACGCGTACATCCACGGAATACCAGCATCGTCTTGATGCCCTTGGAAGTCCGGCTGACGAGTCCCAAATAGGACGAAACGCGC
modifications: expressed or natural sequence
B19: RA432 (nucleic acid)
DNA: GCGCGTCCTGGATTCGCGGAAACGCGTACATCCAGCTGACGAGTCCCACCGGAATACCAGCATCGTCTTGATGCCCTTGGAAGTCCGGAATAGGACGAAACGCGC
modifications: expressed or natural sequence
B20: RA445 (nucleic acid)
DNA: GCGCGTCGAGAATACCAGCATCGTCTTGATGCCCTTGGAAGTCTCCTGGATTCGCGGAAACGCGTACATCCAGCTGACGAGTCCCAAATAGGACGAAACGCGC
modifications: expressed or natural sequence
B21: RA437 (nucleic acid)
DNA: GCGCGTCCTGGATTCGCGGAAACGCGTACATCCAGCTGACGAGTCCCAAGAATACCAGCATCGTCTTGATGCCCTTGGAAGTCTAATAGGACGAAACGCGC
modifications: expressed or natural sequence
B22: RA435 (nucleic acid)
DNA: GCGCGTCCTGGATTCGCGGAAACGCGTACATCCAGCTGACGAGTCCCAAACGGAATACCAGCATCGTCTTGATGCCCTTGGAAGTCCGTAGGACGAAACGCGC
modifications: expressed or natural sequence
B23: RA446 (nucleic acid)
DNA: GCGCGTCCTGGATTCCGGAATACCAGCATCGTCTTGATGCCCTTGGAAGTCCGGCGGAAACGCGTACATCCAGCTGACGAGTCCCAAATAGGACGAAACGCGC
modifications: expressed or natural sequence
B24: RA453 (nucleic acid)
DNA: GCGCGTCCTGGATTCGCGGAAACGCGTACATCCAGCTGACGAGTCCCAAATAGGACGAAACAGAATACCAGCATCGTCTTGATGCCCTTGGAAGTCTGCGC
modifications: expressed or natural sequence
B25: RA451 (nucleic acid)
DNA: GCGCGTCCTGGATTCGCGGAAGAATACCAGCATCGTCTTGATGCCCTTGGAAGTCTAACGCGTACATCCAGCTGACGAGTCCCAAATAGGACGAAACGCGC
modifications: expressed or natural sequence
B26: RA455 (nucleic acid)
DNA: GCGCGTCCTGGATTCGCGGAAACGCGTACATCCAGCTGACGAGTCCCCGGAATACCAGCATCGTCTTGATGCCCTTGGAAGTCCGGCAAATAGGACGAAACGCGC
modifications: expressed or natural sequence
B27: RA436 (nucleic acid)
DNA: GCGCGTCCTGGATTCGCGGAAACGCGTACATCCAGCGGAATACCAGCATCGTCTTGATGCCCTTGGAAGTCCGCTGACGAGTCCCAAATAGGACGAAACGCGC
modifications: expressed or natural sequence
B28: RA043 (nucleic acid)
DNA: GCGCGTCCTCGAGAATACCAGCATCGTCTTGATGCCCTTGGAAGTCTCGGGATTCGCGGAAACGCGTACATCCAGCTGACGAGTCCCAAATAGGACGAAACGCGC
modifications: expressed or natural sequence
B29: RA044 (nucleic acid)
DNA: GCGGAGAATACCAGCATCGTCTTGATGCCCTTGGAAGTCTCCGTCCTGGATTCGCGGAAACGCGTACATCCAGCTGACGAGTCCCAAATAGGACGAAACGCGC
modifications: expressed or natural sequence

Test system: Renilla luciferase RNA
Assay: Barcoded aptazyme variant library screen: un-cleaved Renilla luciferase RNA by barcode read counts, HEK293-T cells
Format: cell-based
Settings: un-cleaved Renilla luciferase RNA by barcode read counts; with 1 mM theophylline (ON) over without theophylline (OFF); HEK293-T cells; triplicate
Method in brief: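 Aptazyme variants (seven theophylline aptamers inserted after each T3H48 ribozyme nucleotide, 9-nt barcoded) cloned into the 3′ UTR of Renilla luciferase in psiCHECK-2; cells cultured ± theophylline, in triplicate. RNA and DNA barcodes amplified and sequenced; normalized read counts gave un-cleaved RNA fraction and ON/OFF fold-change.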

In order of falling “Fold change in RNA expression between the ON state and the OFF state” value:
1. B1  0.6
2. B2  0.6
3. B3  0.6
4. B5  0.6
5. B6  0.6
6. B10  0.6
7. B11  0.6
8. B12  0.6
9. B14  0.6
10. B15  0.6
11. B18  0.6
12. B19  0.6
13. B21  0.6
14. B22  0.6
15. B27  0.6
16. B4  0.5
17. B7  0.5
18. B8  0.5
19. B9  0.5
20. B13  0.5
21. B16  0.5
22. B17  0.5
23. B20  0.5
24. B23  0.5
25. B24  0.5
26. B25  0.5
27. B26  0.5

Same assay, conditions: un-cleaved Renilla luciferase RNA, HEK293-T cells cultured with 1 mM theophylline (ON) over without theophylline (OFF); barcode read counts, triplicate

In order of rising “Fold change in RNA expression between the ON state and the OFF state” value:
1. B28  2.1 fold
2. B29  2.1 fold
